Laboratory results taken from the Human Domainome abundance scans (Beltran et al. 2025).

B1: Unconventional myosin-Ie, residues 1051 to 1108; numbered along this chain, Q12965 (parent)
chain: PQVPQCKALYAYDAQDTDELSFNANDIIDIIKEDPSGWWTGRLRGKQGLFPNNYVTKI

Variants of: B1
Assay: abundance fitness (aPCA) (normalised: wild type 0, dead -1); higher = more abundant; growth selection in yeast, the domain comes from the species named
Conditions: Homo sapiens

Abundance fitness of substitutions, site by site:
Q47: F -0.167, D -0.417, E -0.066, I -0.216, T 0.005, Y 0.248, W -0.111, R -0.099, H -0.149, L -0.194, K 0.007, N -0.507, G -0.451, M -0.169, P -0.32, C -0.236, V 0.041, S -0.16, A -0.222
G41: Y -0.88, S -0.998, V -0.9, Q -0.767, R -0.906
K46: M 0.054, W -0.569, L -0.152, S -0.073, D -0.33, I -0.351, H -0.172, G -0.411, C -0.099, Y -0.351, R -0.01, F -0.364, V -0.051, T -0.146, P -0.715
N52: C -0.515, D -0.195, A 0.03, F 0.002, E 0.019
L49: P -0.656, I -0.219, R 0.09, N -0.428, W -0.157, E -0.242, D -0.319, A -0.236, C -0.025, G -0.16, Q -0.151, T -0.288, H -0.317, V -0.015, K 0.036
F50: T -1.08, Y -0.831, V -0.208, P -0.896, I 0.069, R -0.968, A -0.841, C -0.94, M -0.31, K -1.07, D -0.839, W -0.944, L -0.19, E -0.911, G -0.826
P51: Y -0.425, R -0.026, Q -0.438, V -0.94, W -0.143, E -0.674, F -0.302, D -0.114, L -0.198, G -0.771, C -0.316, H -0.264, M -0.484, K -0.18, A -0.341, S -0.287
R44: S -0.08, E -0.319, C -0.139, Q -0.071, K -0.181, V -0.19, H -0.236, W -0.467, F -0.134, I -0.759, M -0.179, L -0.164, D -0.019, A -0.074, G -0.137, N 0.068
L43: Q -0.621, V -0.063, A -0.123, K -0.453, F 0.014, E -0.701, N -0.331, C -0.267, Y -0.328, W -0.706, M 0.101, T -0.113, R -0.417, S -0.269, I 0.062, G -0.762
G48: D -0.885, Q -0.826, F -0.598, N -0.626, A -0.171, T -0.91, R -0.646, C -0.477, K -0.718, M -0.579, L -0.399, V -0.756, W -0.609
R42: W -0.06, I -0.356, K 0.104, D -0.254, N -0.005, A -0.013, M -0.394, E -0.049, F -0.193, G -0.125, Y -0.366, H -0.15, L -0.161, Q -0.028, P -0.897, T -0.114
G45: T -0.353, N 0.06, M -0.161, E -0.058, A -0.319, D -0.075, Q -0.149, L -0.416, P -0.977, F -0.321, C -0.303, R -0.337, W -0.702, H -0.1, I -0.639, V -0.762
